Measured values taken from US20250019450A1 (DIAGONAL THERAPEUTICS, published 2025).
Each block holds one binder with its values, some of them ahead of it.

Tests used:
[1] = molecular target: T1, human IL-12Rβ2, Acro (BLI analyte) (human, UniProt Q99665 24-622, limits assumed); assay: BLI (Octet), antibody on AHC tip
T1 sequence (looked up): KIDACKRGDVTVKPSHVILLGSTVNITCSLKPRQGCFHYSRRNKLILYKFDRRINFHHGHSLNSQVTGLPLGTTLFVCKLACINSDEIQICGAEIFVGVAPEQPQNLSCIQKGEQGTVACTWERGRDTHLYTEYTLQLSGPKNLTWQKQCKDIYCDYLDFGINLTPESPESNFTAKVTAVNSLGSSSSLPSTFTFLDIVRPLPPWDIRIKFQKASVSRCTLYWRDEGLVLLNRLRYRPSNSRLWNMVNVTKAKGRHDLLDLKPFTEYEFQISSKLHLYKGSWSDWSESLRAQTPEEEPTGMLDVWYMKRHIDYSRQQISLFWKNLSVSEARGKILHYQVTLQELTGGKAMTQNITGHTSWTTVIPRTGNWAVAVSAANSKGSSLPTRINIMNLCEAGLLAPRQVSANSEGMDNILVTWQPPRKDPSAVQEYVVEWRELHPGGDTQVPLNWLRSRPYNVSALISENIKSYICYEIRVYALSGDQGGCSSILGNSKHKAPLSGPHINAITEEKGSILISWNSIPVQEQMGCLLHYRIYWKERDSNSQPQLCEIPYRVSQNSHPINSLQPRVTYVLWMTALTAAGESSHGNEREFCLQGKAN

[2] = molecular target: human IL-12Rβ1, Acro (BLI analyte) (human, UniProt P42701 24-545); assay: BLI (Octet), antibody on AHC tip
[3] = molecular target: human IL-12 receptor (IL-12Rβ1 and IL-12Rβ2) on HEK-Blue IL-12 cells (human, UniProt P42701 24-662; Q99665 24-862); assay: cell-based or functional assay

B2: DGL570 (bispecific antibody, V domains shown)
V domain 1: QVQLVESGGGLVQAGGSLRLSCAASRSISSFNEMAWYRQAPGEQRELVATIVSTVGFTNYADSVKGRFTISRDNAKNTVYLQMNSLKAEDTAVYYCNARRISTDYWGQGTQVTVEP
V domain 2: QVQLVESGGGLVQPGGSLRLSCAASGFTFSSKAMHWFRQAPGKGLEWVSSINSGGAITYYKDSVKGRFTVSRDNAKNILYLEMNSLKPEDTALYYCATDTDGRTRGQGTQVTVEP
notes: 233B1 x 64B2
Kd [1]: 7.66 nM
Kd [2]: 1.38 nM
EC50 [3]: > 100 nM
Max Absorbance [3]: 1.44

B5: DGL572 (bispecific antibody, V domains shown)
V domain 1: B2 V domain 1
V domain 2: QVQLVESGGGLVQPGGSLRLSCAASGFTFEPYDMSWFRQAPGKGPEWVSAIDKGGGAGATYYADSVKGRFTISRDNAKKTLYLQMKSLKPEDTAVYYCAITAGPYSDSTPRVAYRGEGTQVTVEP
notes: 233B1 x 93B2
Kd [1]: 2.41 nM
Kd [2]: 1.48 nM
EC50 [3]: 1.2e-08 M (implied)
Max Absorbance [3]: 1.05

B8: DGL482 (bispecific antibody, V domains shown)
V domain 1: QVQLVESGGGLVQAGGSLRLSCAASARIFNSYAVAWFRQTPGKEREFVASISWSGGSTNYADSVKGRFTISRDNAKNTVFLQMNSLKPADTAVYYCAADRNYYPSVLGKYTYWGQGTQVTVEP
V domain 2: B2 V domain 2
notes: 67B1 x 64B2
Kd [1]: 7.4 nM
Kd [2]: 6.83 nM
EC50 [3]: 2.9e-09 M (implied)
Max Absorbance [3]: 0.68

B9: DGL606 (bispecific antibody, V domains shown)
V domain 1: QLQLVESGGGLVQPGGSLRLSCAASGFTFSSYGMSWVRQAPGKGLEWVSYISAGGGTTTYVDFVKGRFTISRDNAKNMLYLQMNSLKPEDTAVYYCVHAADGSRGQGTQVTVEP
V domain 2: QVQLEESGGGLVQAGGSLRLSCAASGRTFSSYVVGWFRQAPGKEREFVGRISWSGARTYYADSVEGRFTISRDNAKNTVYLQMNSLKPEDTAVYYCAADLKWEVLLSEHYEYWGQGTQVTVEP
notes: 238B1 x 219B2
Kd [1]: 6.03 nM
Kd [2]: 2.68 nM
EC50 [3]: 8.8e-09 M (implied)
Max Absorbance [3]: 0.92

B10: DGL516 (bispecific antibody, V domains shown)
V domain 1: QVQLVESGGGLAQAGGSLRLSCAASGRTFSNDDMAWFRQAPGKEREFVAHIDRNAASTNYADSVKGRFTISRDNAKNTVYLQMTRLKPEDTAVYYCAADPDHFGTTWYQQYTYWGPGTQVTVEP
V domain 2: B5 V domain 2
notes: 97B1 x 93B2
Kd [1]: 3.41 nM
Kd [2]: 27.3 nM
EC50 [3]: 6.5e-11 M (implied)
Max Absorbance [3]: 1.05

B13: DGL514 (bispecific antibody, V domains shown)
V domain 1: B10 V domain 1
V domain 2: QVQLVESGGGLVQPGGSLRLSCAASGFTFSNYAMSWIRQGPERGFEWVSRINSGGGTTSYADSVKGRFTISRDNAKNTLYLQMNSLKPEDTAVYYCAKHSHPDYSSNYYRPGQGTQVTVEP
notes: 97B1 x 67B2
Kd [1]: 5.48 nM
Kd [2]: 9.86 nM
EC50 [3]: 3.5e-11 M (implied)
Max Absorbance [3]: 0.85

Second part, the binder after the results:

Kd [1]: 0.723 nM
Kd [2]: 1.7 nM
EC50 [3]: 5.2e-09 M (implied)
Max Absorbance [3]: 1.19
B1: DGL569 (bispecific antibody, V domains shown)
V domain 1: B2 V domain 1
V domain 2: QVQLVESGGGLVQPGGSLRLSCAASGFTFSNYAMSWVRQAPGKGLEWVSAINSDGTSTSYADSVKGQFTISRDNAKNTLYLQMNSLKPEDTAVYYCTKWEGDTDSDYKFKDYWGQGTQVTVEP
notes: 233B1 x 19B2

Kd [1]: 2.34 nM
Kd [2]: 1.78 nM
EC50 [3]: > 100 nM
Max Absorbance [3]: 0.91
B3: DGL568 (bispecific antibody, V domains shown)
V domain 1: B2 V domain 1
V domain 2: QVQLVESGGGLVRPGGSLRLSCAASGFTFSSNGMHWFRQAPGKGLEWVSSIGSGGTSIYYADSVKGRFTISRDNAKNTLYLQMNSLKSDDTAVYYCSKEVTGATRGQGTQVTVEP
notes: 233B1 x 13B2

Kd [1]: 0.772 nM
Kd [2]: 7.17 nM
EC50 [3]: 3.3e-10 M (implied)
Max Absorbance [3]: 0.93
B4: DGL481 (bispecific antibody, V domains shown)
V domain 1: B8 V domain 1
V domain 2: B1 V domain 2
notes: 67B1 x 19B2

Kd [1]: 0.77 nM
Kd [2]: 10.7 nM
EC50 [3]: 6.4e-10 M (implied)
Max Absorbance [3]: 0.96
B6: DGL495 (bispecific antibody, V domains shown)
V domain 1: EVQLVESGGGLVQAGGSLRLSCAASGLTFRNYAMAWFRQAPGKEREFVAGITWGGGLTHYVDSVKGRFTISRDNGKNTVYLQMNSLKSEDTAVYYCAGKTQGSTWYHLTPDGYDYWGQGTQVTVEP
V domain 2: B1 V domain 2

Kd [1]: 0.706 nM
Kd [2]: 59.5 nM
EC50 [3]: 4.5e-10 M (implied)
Max Absorbance [3]: 0.69
B7: DGL534 (bispecific antibody, V domains shown)
V domain 1: QVQLVESGGGLVQAGGSLRLSCLASGRTSNYFMGWFRQAPGKEREFVAAISRSGGGTWYADSVKGRFAISRDNAKNTVNLQMNSLKREDTAVYYCAADRRTGTSVYTVDEYDYWGQGTQVTVEP
V domain 2: B1 V domain 2
notes: 115B1 x 19B2

Kd [1]: < 0.001 nM
Kd [2]: 20.8 nM
EC50 [3]: > 100 nM
Max Absorbance [3]: 0.64
B11: DGL515 (bispecific antibody, V domains shown)
V domain 1: B10 V domain 1
V domain 2: QVQLVESGGGLVQAGGSLRVSCAASGRIPSLNTMAWYRQAPGKQREFVAFITNGGTTNYVDSVEGRFSISRDNTKNAVDLQMNSLKPEDTGVYYCNVQISQYPYNYWGQGTQVTVEP
notes: 97B1 x 85B2

Kd [1]: 1.87 nM
Kd [2]: 2.25 nM
EC50 [3]: 4.6e-10 M (implied)
Max Absorbance [3]: 0.74
B12: DGL605 (bispecific antibody, V domains shown)
V domain 1: B9 V domain 1
V domain 2: B5 V domain 2
notes: 238B1 x 93B2

Kd [1]: 0.682 nM
Kd [2]: 1.63 nM
EC50 [3]: 6.6e-11 M (implied)
Max Absorbance [3]: 0.79
B14: DGL601 (bispecific antibody, human IgG1, lambda)
heavy 1: not shown
heavy 2: QVQLVESGGGLVQPGGSLRLSCAASGFTFSNYAMSWVRQAPGKGLEWVSAINSDGTSTSYADSVKGQFTISRDNAKNTLYLQMNSLKPEDTAVYYCTKWEGDTDSDYKFKDYWGQGTQVTVEPKSSDKTHTCPPCPAPEAAGAPSVFLFPPKPKDTLMISRTPEVTCVVVDVSHEDPEVKFNWYVDGVEVHNAKTKPREEQYNSTYRVVSVLTVLHQDWLNGKEYKCKVSNKALPAPIEKTISKAKGQPREPQVCTLPPSRDELTKNQVSLSCAVKGFYPSDIAVEWESNGQPENNYKTTPPVLDSDGSFFLVSKLTVDKSRWQQGNVFSCSVMHEALHNRFTQKSLSLSPG
light: SSELTQDPAVSVALGQTVRITCQGDSLSSYYAGWYQQKPGQAPVLVIYGKNNRPSGIPDRFSGSSSEDTASLTITGAQAEDEADYYCNSRDSSDNHLVFGGGTKLTVLGQPKAAPSVTLFPPSSEELQANKATLVCLISDFYPGAVTVAWKADSSPVKAGVETTTPSKQSNNKYAASSYLSLTPEQWKSHRSYSCQVTHEGSTVEKTVAPTECS
notes: 85801_04M04A x 19B2

Kd [1]: 0.726 nM
EC50 [3]: 2.6e-10 M (implied)
Max Absorbance [3]: 1.49
B15: DGL424 (bispecific antibody, human IgG1, lambda)
heavy 1: not shown
heavy 2: QVTLRESGPALVKPTQTLTLTCTFSGFSLSTSGMCVSWIRQPPGKALEWLALIYWDDDKYYSTSLKTRLTISKDTSKNQVVLTMTNMDPVDTATYYCARMRRGIEAFDIWGQGTMVTVFSASTKGPSVFPLAPSSKSTSGGTAALGCLVKDYFPEPVTVSWNSGALTSGVHTFPAVLQSSGLYSLSSVVTVPSSSLGTQTYICNVNHKPSNTKVDKKVEPKSCDKTHTCPPCPAPEAAGAPSVFLFPPKPKDTLMISRTPEVTCVVVDVSHEDPEVKFNWYVDGVEVHNAKTKPREEQYNSTYRVVSVLTVLHQDWLNGKEYKCKVSNKALPAPIEKTISKAKGQPREPQVCTLPPSRDELTKNQVSLSCAVKGFYPSDIAVEWESNGQPENNYKTTPPVLDSDGSFFLVSKLTVDKSRWQQGNVFSCSVMHEALHNRFTQKSLSLSPG
light: QSVLTQPPSVSGAPGQRVTISCTGSSSNIGAGYDVHWYQQLPGTAPKLLIFGYSNRPSGVPVRFSGSKSGTSASLAITGLLAEDEADFYCQSFDISLTGWVFGGGTKLTVLGQPKAAPSVTLFPPSSEELQANKATLVCLISDFYPGAVTVAWKADSSPVKAGVETTTPSKQSNNKYAASSYLSLTPEQWKSHRSYSCQVTHEGSTVEKTVAPTECS
notes: 54B1 x 85802_10K12A
